Data on 9 molecules can be found in article PMC5912465 (2018).

Sequences and labels used below:
B3: CCL18 (ligand)
chain: AQVGTNKELCCLVYTSWQIPQKFIVDYSETSPQCPKPGVILLTKRGRQICADPNKKWVQKYISDLKLNA
B4: CCL8 (human chemokine panel) (ligand)
chain: QPDSVSIPITCCFNVINRKIPIQRLESYTRITNIQCPKEAVIFKTKRGKEVCADPKERWVRDSMKHLDQIFQNLKP
B5: CCL3 (ligand)
chain: SLAADTPTACCFSYTSRQIPQNFIADYFETSSQCSKPGVIFLTKRSRQVCADPSEEWVQKYVSDLELSA
B6: CCL14 (ligand)
chain: TKTESSSRGPYHPSECCFTYTTYKIPRQRIMDYYETNSQCSKPGIVFITKRGHSVCTNPSDKWVQDYIKDMKEN
B8: CCL3L1 (ligand)
chain: APLAADTPTACCFSYTSRQIPQNFIADYFETSSQCSKPSVIFLTKRGRQVCADPSEEWVQKYVSDLELSA

Assay [1] addresses evasin 1 (EVA1_RHISA), C-terminally tagged (Rhipicephalus sanguineus, UniProt P0C8E7 21-114, K92N). Kind of assay: BLI.
In assay [2] the target is other, more extended hybrid molecules (P672_EVA1 hybrids). Kind of assay: BLI; P672(1_66):EVA1(47_94).
Assay [3] has as its target P672(1_44)-EVA1(29_94) hybrid evasin (Rhipicephalus pulchellus | …, UniProt L7MC74;P0C8E7, K92N). Kind of assay: BLI. (In general: In BLI a coated tip is dipped into the sample, and binding shifts an interference pattern.)
Assay [4] has as its target other, more extended hybrid molecules (P672_EVA1 hybrids). Kind of assay: BLI; P672(1_92):EVA1(74_94).
The target in the assay “CCL3” is B5. In words: BLI.
A further assay addresses T1, CCL23 (human, UniProt P55773 22-120).
T1 chain: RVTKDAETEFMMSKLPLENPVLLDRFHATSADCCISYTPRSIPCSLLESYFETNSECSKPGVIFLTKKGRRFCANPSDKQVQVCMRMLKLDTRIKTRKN
In words: BLI.

For another assay, the target named is T2, CCL16 (human, UniProt O15467 24-120).
T2 chain: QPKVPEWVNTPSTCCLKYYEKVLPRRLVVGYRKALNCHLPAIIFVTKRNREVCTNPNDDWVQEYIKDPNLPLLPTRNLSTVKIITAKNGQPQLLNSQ
In words: BLI.

The target of the next assay is T3, CCL15 (human, UniProt Q16663 22-113).
T3 chain: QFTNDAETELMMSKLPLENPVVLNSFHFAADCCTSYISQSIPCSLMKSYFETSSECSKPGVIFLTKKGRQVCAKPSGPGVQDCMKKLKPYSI
Kind of assay: BLI.

The target of the assay “CCL14” is B6. In words: BLI.
The target in the next assay is CCL7 (human, UniProt P80098 24-99). Kind of assay: BLI.
Chain of CCL7 (P80098 24-99): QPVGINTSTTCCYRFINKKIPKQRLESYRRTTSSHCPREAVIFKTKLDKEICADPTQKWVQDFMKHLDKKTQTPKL
The target of the assay “CCL3L1” is B8. In words: BLI.
In the assay “CCL18” the target is B3. Kind of assay: BLI.
A further assay addresses CCL2 (human, UniProt P13500 24-99). In words: BLI.
Assay [5] concerns the target B4. In words: BLI.
A further assay addresses T4, CCL1 (human, UniProt P22362 24-96).
T4 chain: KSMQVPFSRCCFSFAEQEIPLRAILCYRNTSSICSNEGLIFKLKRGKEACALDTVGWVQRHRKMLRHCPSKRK
In words: BLI.

The target of the next assay is CCL13 (human, UniProt Q99616 17-98). In words: BLI.
Chain of CCL13 (Q99616 17-98): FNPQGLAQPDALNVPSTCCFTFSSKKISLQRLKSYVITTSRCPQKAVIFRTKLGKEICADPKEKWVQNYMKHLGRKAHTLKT
In the next assay the target is CCL11 (human, UniProt P51671 24-97). In words: BLI.
Chain of CCL11 (P51671 24-97): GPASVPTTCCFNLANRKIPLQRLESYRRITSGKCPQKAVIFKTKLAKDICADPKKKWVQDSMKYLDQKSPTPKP

B1: CCL4L1 (ligand)
chain: APMGSDPPTACCFSYTARKLPRNFVVDYYETSSLCSQPAVVFQTKRGKQVCADPSESWVQEYVYDLELN
Broadly, the Kd is the free concentration of one partner at which half of the binding sites on the other are occupied at equilibrium, for simple one-to-one binding. High values mean weaker binding, low ones tighter binding. Regarding B1, the Kd in assay [1] stood at 77.9 nM.

B2: CCL4 (ligand)
chain: APMGSDPPTACCFSYTARKLPRNFVVDYYETSSLCSQPAVVFQTKRSKQVCADPSESWVQEYVYDLELN
Molecule B2 returned a Kd in assay [1] of 233 nM.

As for B3, the Kd in [2] amounted to 3.69 nM; in [1] it was 2.02 nM; in assay [3], 6.45 nM; in assay [4], 9.75 nM.

On to B4, for which the results for the equilibrium dissociation constant (Kd) in [2], in assay [3] and in [4] were 277 nM, 216 nM and 397 nM, respectively.

As for B5, binding in assay [1] was characterised by a dissociation constant (Kd) of 7.3 nM.

B6 had a Kd in [1] of 108 nM.

B7: N-terminally tagged P672 (P672_RHIPU), glycosylated (natural protein)
chain: VCEVSEQEGVGEDNATEDEDYEDFFKPVTCYFANSTVGPLRPPNCTVVCTNNTAWWNDTKSDGGHCYSEYRPEKRTHSREIYNCTIGVCGNGTCIANHTYADCW
modifications: N-glycosylated (six N-glycosylated residues identified by mass spectrometry, Asn-34 among them; marked in Figure 2A)
Take B7: the dissociation constant (Kd) in the assay with CCL3 was found to be 0.954 nM; with CCL23 it was 4.56 nM; in the assay with CCL16, 9.6 nM; with CCL15 it was 31.5 nM; with CCL14 it was 5.5 nM; with CCL7, 18.6 nM. Besides, the dissociation constant Kd in the assay with CCL3L1 was 1.63 nM; with CCL18, 1.62 nM; in the assay with CCL2 it was 21 nM; in assay [5], 8.51 nM; with CCL1, 11 nM; with CCL13 it was 7.6 nM. Besides, binding in the assay with CCL11 was put at a Kd of 2.29 nM.

B8 gave a Kd in [1] of 22.4 nM.

B9: C-terminally tagged P672 (P672_RHIPU), glycosylated (natural protein)
chain: ETGVCEVSEQEGVGEDNATEDEDYEDFFKPVTCYFANSTVGPLRPPNCTVVCTNNTAWWNDTKSDGGHCYSEYRPEKRTHSREIYNCTIGVCGNGTCIANHTYADCW
modifications: glycosylated
For the molecule B9, the equilibrium dissociation constant (Kd) was determined as 13 nM with CCL3; 9.7 nM with CCL23; 5.7 nM with CCL3L1; 0.9 nM with CCL18; 16.4 nM in assay [5].
